# In the DeepSol protein solubility set:
# Test: soluble on expression in E. coli; label from the status in PepcDB or PDB records
row,Sequence,soluble on expression in E. coli
1,MSRRLPPLNSLRVFEAAARHLSFTRAAEELFVTQAAVSHQIKALEEFLGLKLFRRRNRSLLLTEEGQSYFLDIKEIFSSLSEATDKVLERSAKGALTISLPPSFAIQWLVPRLSDFNNQEPDIDVRIKAVDMDEGSLTEDVDVAIYYGRGNWPGLRVELLYQEQLLPLCSPQVLLNEKPLATIDDLRFHTLLHDTSRKDWKQFVKHYELAGMNVNQGPIFSHSTMVLQAAAHGQGIALGNNVLAQPELDAGRLVAPFEEVLVSKNAFYLVCNEKQADTGRIATFREWILSKARSEQEIVDDE,soluble
2,MSRTVIRAQPFFLQAAPGSREQLANPRGFTTFVLEASWSTGLRLDTYVTRGLGDPEQIMREEFQGQYVFWDTDEYLDLIRWMRHYNVSHPGRPTLRFVGNDLGYPGPEAFDQVTSYVTAHRPGVAERIATLYAGLRPARSASAGAWMGQQLTKDLASRRAEAARAERALTLLCASGRPRGSAGRAYNWAVQNATAVAQSFTGYAFPDEEFPERMRYRDQAMADNTAWWLAHTNGRILLASNNGHVAYTSDNPQEFPEPVGAFLRKKLGRKYVSVGLTFSEGSLNALPDFTAGQPQKYAVDPAPAGHNEHTLDQVRHRDFALDLRTAPPAARAWLDTARPTRSYGLYWSDQDPETALGRSYDIVIHLHRVEAARLWAFTSVKDGQSYRLEHHHHHH,not soluble
3,MSRVYTLLTGLLLSLIALSLQAAQLTASVDRTRLNAGETVELTLETDDVTQFGKPDMSSLEASFEVRDTRQLNSLKTLDGSSQATTRWIVTLLPRETGSVIIPSLQLGELKSQPLTLQVMQSETKEPTSHLASIFIEASLDQDSVYVQAQAVLTLRVYHSVSLFDDSSLN,not soluble
4,MSSAPPAPRVIAVVGPTAAGKSDLGVFLAQRLGGEVVNADSMQLYRGMDIGTAKLTPEERGGVPHHLLDIWDVTVTASVAEYQRLARERIDALLAEGRWPILVGGSGLYVRGAVDNLEFPGTDPGIRARLEEELELRGPGALHARLAVADPEAARAILPSNGRRIVRALEVIEITGRPFTANLPGHDSVYDTVQIGVDVARPELHERIALRVDRMWEAGLVDEVRALEAQGLREGRTASRALGYQQVLAALAGECTLDEARAETVRATKRFARRQDSWFRRDPRVHWLSGGVADRTELPRLALSLVERPVTALEHHHHHH,not soluble
5,MSSARLVIAGLNGGTGKTILSLGTVRALTNAGHSVKPFKKGPDYIDAEWLGLAAGRAATNLDPFFLDAARLQSLFLHASAGASISIIEGNRGLYDGRDVTGSCSTAELARILDSPVVLAMDCTKMTRTAAAILSGVAAFEPGVKLAGVVLNRTANERHRSMLRQCIEHYTDIPVLGALPRLRDNPIPERHMGLVSDREFAQCAGELDRVAQFVAQHVDVERMAEIARSAQPLASNEPFWPVVAEGDGVRPRIGYVRDAALWFYYEENLEALRQAGADLVELRIIDGDPWPTLDGLYLGGGFPETLASELSACRERLAGIREAALAGLPVYAECGGFMVLGESIVMDGVEYPMSGVFPVQTVFHPKPQGLGYVEAEVVAENPFFPQGMVFRGHEFHYSACRPRDGGAVTHALRLNPGTGMGGGADGLVQANTFAAYTHIFGPAVQGWAERFVRAARGHRDQLNKGTDLSLEHHHHHH,not soluble
6,MSSDVRFTDFKSDKQPTWCPGCGDFGTMNGMMKALAETGNDPDNTFIVAGIGCSGKIGTYMHSYALHGVHGRALPVGIGVKMANPDLEVMVSGGDGDGYSIGAGHFIHAVRRNVDMSYVVMDNRIYGLTKGQASPTSREDFETSTSPDGPNQPPVNPKALALASGATFIAQSFSSNAQRHAEIVQKAVEHDGFGFVNVYSPCVTFNDVDTYDYFRDAIVDLDETDHDPADRDQAKDKILESEKEYMGVLYQDEDSVPFEEREGVEGSMAEIPDGAPEGAMDLVREFY,not soluble
7,MSSEKRVGMVEKSNNKRQRVNQVPVFSINDHHDVLVEILRRLDGSSLCSAACVCRLWSAVARNDSIWEELCFRQVSPRPSLSLRSVVSALGGYRCLYFLCIRPVLARLPKLLWTRDQLQLSLSLYCVHYYERLYVGAWLGDAPPSSLIFLRKPVNVV,soluble
8,MSSETFYKTQQDLRKAESHASHAAGGNTPANSNVSAMKVTPNLLIQFGDTAANSTNQSIVDEHTDKAKAIEERKANLPLPDQPPVASDWQSADQRAVNVGSGGVQGSVSGESNTALRDPATAGSSARMSGEELHKETQPTGNVGRQATEGLSDIPGDAKARK,not soluble
9,MSSFIEMIENITPDVYESLKLAVEIGKWSDGRKLTQEQRELSLQALIAWEAQNLPEDQRTGYMGPQECASKSAPVPNILFKSDAIH,not soluble
10,MSSGNIHIHSMTGFANAAAECGSKRINLDLRAVNHRFLDIQIRMPDDLRYLESGIREKISSHIARGKVECKIQIQDAENGSQSLELNRDLVGQLAEINKDLRKHHDLAKLGVADILRFPGVLASQRENTEELAKSITELTEKALKDFTAARKREGKKLGEHLLQRLEAMEEIIDALSELFPTLLETHKEKIRARLVEAVGSIDNDRLQQEFALFIQKSDIDEEFSRLRTHIAEVRRIVTEHKGSSGKRLDFLMQELNREANTLGSKSIAAECTQASVELKVLIEQMREQVQNIE,not soluble
11,MSSHESLFDYEATLQACARGEKQALQRLYLQESARLLGVAQRLVRDSALAEDIVHDAFLKIWTHAASFDASRGSARGWIFSVTRHLALNTLRNTAREVRVEDDGSDDHHEQATLEGWQETGDAFDWRVNPGRMISCMEQLEPVRRNCIFHAYVDGYSHQEIAQKIGAPLGTVKAWIKRSLTALRECMG,not soluble
12,MSSIGKEDIYESDGAASQVQKSEPENDNPTHPDIELISVDVDEALKKYKNRVLNLTSSDFSDSIAKKRRHAFGNNQYVLEVTGAGFSGTETAAEKLNRILYEVADLNEQIRADENLKTDLLNAEVLENLEKEVKTLQVAQSNGKTARVEHDVELPNVRTDSKVATLENRLRRIEQVIGSSVIPSAPVLDTIEDLKLRCETLNHSYVSGLEQRLNMMLTKLEKIDETRANNDIDENLDKKVDEILELMQKWDVACSSLPSNVNKVKALNRLHEQVQHFAGGLSHLKTIREKLEKEVAQGREAIIEYESQGKQEIGSVVEKLKLLEAKVADLK,not soluble
13,MSSIKTSPTKKTSESTTKQDTPNDQTNIENFDEEPSMLSDPEDYLEENETLDMNLSKGDQKVWLVKLPKYLMDDWSNPDSMNGQQLGNVKIKKDARGKLQVKLLLDNKNDRIPKEYDIKMLNTQVRNSYVFTEENLKKFKQEVTEVSDMPEQPQLKELNPEKKKFQVRRKFKYFRVQKEGENGQPVKKYIPFVKTIPKKTSLMGKVCHDCTVVPARTGSKHGESLMKHQNMTQGKERPKVTLLNEIPGVIQSNAGPSIKGNAASIFLKSTQGKNKSEGRTIRMPKKDLLDLLFRLFEEYEYWSMKGLKERTRQPESYLKESLESIATLIKRGPYTSKYTLKAEYRRLRDAERAVRLGLDEDDQNKENNEDEDEDEEMEDVV,soluble
14,MSSITKSRSTKKLSQVIVEQLIETIQSGEFKIGEKIPTELELIEQFDVSRSVIREAITELRSLGFVETRHGIGTFVKEQNIEQNFLLSNASLETINDIVALLELRISLESEAVFLASERRKNKHLEKMKIALNDFEAHISSGENDGTVKADYDFHIAIAEASGNQYFVDFLKYLGEKIIPRARVKSIEQSPENREEYLKTVHHDHVNIYNAILDQDGLLARQMMRAHLSKSIKKFKQ,not soluble
15,MSSKYNSLKLVKVKNVGDFVYKVSLNRPSKFNALNMVIWKEIGDCFQLIDEDPECRVVILQGEGKHFCSGLDLSEVTFLNGEEADDSARRGRSILRTIKFMQKQFTYIDECSKPVILAMHGYCLGAALDIATACDVRVATKDAVLSVKEVDIGMAADVGTLNRLPKIVGNHSWIKDISLSARHFSAGEALQFGLLSRVYDTREEMINEVLKMAKLIALKSPVGVQGTKNALNYARDHTVENSLNYVATWNMSQLFTDDIMKASMASLSKQPTPPFSKL,not soluble
16,MSSLTLTDKVSKMIHQDILSGKLKPGQKLVVAELKERYNVGASPIREALVQLSWNKYVKLEPQKGCWVASISLSELKELFESLRTIGQVLLAKAITNGNENWELNVLTSFHKLNKINLQDAKIEELREWENRYTDFHNSLLEGAQSPIMYQFYQDISHQITRYRHLNNNPQVISETYAQYLEEHEIMMKLTLSRDSEQAIKYLNNHYSKASDLISTYFSA,not soluble
17,MSSPARQYRGRSSEQRAAERRARLLEAGLQVFGTVGGEKATMTAICAEAKLTERYFYESFRDRDDLLVQVIEGIAAEIAEAARVTLQTVTGDPEVRARAAIATFVDILTADPRKGRVSIIESAAAEPLRTRRRELLRAFALLVAEESKELYGDRAWSSPQDEITALLFVGGLAELMTAWLNGEIEVSPEQIVDAATYQFTSTAHR,not soluble
18,MSSPYSPREWLQLNMQQQGLLQPQTSVGQLIACLGYVQIDSINVVERAHHHVLHSRMPQYQPQMLDTALAQGEIFEYWSHAAAYLPIADYRFSLQRKQQLQNGGKHWFEPDDNAMQEVRARIRAEGPLKASDFEHTEGKNGAWWDWKPAKKALEQLFMRGELMVVRREKFQKCYDLTERVLPSHINTLAPSDSEFARHLISRYLDAHAFGSAAQIAYLRKGIKANVNQQLAAMQSQGELASFKAEGQWYFYRPELQITAAMPNRVWLLNPFDNLLIQRQRLKQWFDFDYQIEVYVPAEKRQYGYYSLAILWRDRFVGRVDVKADRQSGLLLLQQLTLEEGFDGMDEGFCSAFEATVSEYARFNICSRWKLVKANHKAFKLEHHHHHH,not soluble
19,MSSQIPFTVDHVGSFLRPETIKKARKKVQAGALSQAELRLIEDEEIKALVAKQKAGGLRGITDGEFRRGFWHIDFLEGLNGVTGYIPETGYNQTFHGKAAPAYNIRVVDKISFPTQHPFLEDFSFLKEVVEVGDGTVAKATIPSPTMILRQEILSNDGTSRIQTIYPEIGAFYKDLAQTYKDAIAAFYERGCRYLQFDDTNWAFLADQTKQEELRAKGIQPEEIAQVCTTIINEALAGKPEDLTVTTHICRGNHASSWLFSGGYEPIAKELFATNYDGFFLEYDSDRAGDFSPLRHWQNNGSKVVLGLVTSKFPELEETEQVKARIEEAQQFVPLENLSISPQCGFASTEEGNRLTEKEQWRKVQLLQEIAREVWLEHHHHHH,soluble
20,MSSRKGTRSSRIVTLERSANSSLSNNGGGDDSFGSTLLETSRLQEKDHLTSLNSRLATYIDKVRQLEQENNRLQVQIRDIEVVEKKEKSNLADRFEAEKARLRRALDSAQDELAKYRIEYDAAKVEVKKLKPQVEKLERELAGAEEQALHAQSIADQSQAKQKTLQARNDKLVVENDDLKKQNITLRDTVEGLKKAVEDETLLRTAANNKIKALEEDLAFALQQHKGELEEVRHKRQVDMTTYAKQINDEYQSKLQDQIEEMRAQFKNNLHQNKTAFEDAYKNKLNAARERQEEAVSEAIHLRARVRDLETSSSGNASLIERLRSELDTLKRSFQEKLDDKDARIAELNQEIERMMSEFHDLLDVKIQLDAELKTYQALLEGEEERLNLTQEAPQNTSVHHVSFSSGGASAQRGVKRRRVVDVNGEDQDIDYLNRRSKLNKETVGPVGIDEVDEEGKWVRVANNSEEEQSIGGYKLVVKAGNKEASFQFSSRMKLAPHASATVWSADAGAVHHPPEVYVMKKQQWPIGDNPSARLEDSEGDTVSSITVEFSESSDPSDPADRCSIM,not soluble
21,MSSRPPFGIVKPSKPTGNPSSGSSELDSTAQPPQERGTDLQRASSGSDVHGHPSPGSQSHNLTSAQSGGRNAHKDLHERHVHPSQGYQRHGSKAPAHGHPSSQGARRSQLKLSNFPKLLANLMQDTKATQDFNSKYHSDFKKSKNSLITGESIFKFSHGIINFFFGRTSASCASNQDTLQPTASTMSDGEPEEDKVKLCGNRLEVGVTDNLAGTQRRKEQQQLQGAQAKKQQAPQRVVNRKANHQKLSRKRRYAPYKDDVIGAHGFFNNMR,not soluble
